In article PMC12098869, “An mRNA-display derived cyclic peptide scaffold reveals the substrate binding interactions of an N-terminal cysteine oxidase” (Nature Communications, 2025):

T1: ADO-F256A, biotinylated (pQE80L-Navi-ADO) (human, UniProt Q96SZ5 1-270, F256A, biotin on the Avi tag)
T1 construct: Tag as in Dm1; source: E. coli Rosetta2(DE3), purified (Ni-NTA, SEC); not shown: Avi tag, N-terminal, kept; His6, N-terminal, kept
T1 sequence (looked up): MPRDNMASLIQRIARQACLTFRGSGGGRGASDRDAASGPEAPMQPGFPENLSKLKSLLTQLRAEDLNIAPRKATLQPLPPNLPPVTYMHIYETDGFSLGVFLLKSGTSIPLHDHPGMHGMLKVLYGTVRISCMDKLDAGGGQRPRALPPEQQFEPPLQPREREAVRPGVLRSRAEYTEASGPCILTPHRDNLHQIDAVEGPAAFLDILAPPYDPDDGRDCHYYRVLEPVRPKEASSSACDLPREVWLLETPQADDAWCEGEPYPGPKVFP

T2: ADO-D206E, biotinylated (pQE80L-Navi-ADO) (human, UniProt Q96SZ5 1-270, D206E, biotin on the Avi tag)
T2 construct: Tag as in Dm1; source: E. coli Rosetta2(DE3), purified (Ni-NTA, SEC); not shown: Avi tag, N-terminal, kept; His6, N-terminal, kept
T2 sequence (looked up): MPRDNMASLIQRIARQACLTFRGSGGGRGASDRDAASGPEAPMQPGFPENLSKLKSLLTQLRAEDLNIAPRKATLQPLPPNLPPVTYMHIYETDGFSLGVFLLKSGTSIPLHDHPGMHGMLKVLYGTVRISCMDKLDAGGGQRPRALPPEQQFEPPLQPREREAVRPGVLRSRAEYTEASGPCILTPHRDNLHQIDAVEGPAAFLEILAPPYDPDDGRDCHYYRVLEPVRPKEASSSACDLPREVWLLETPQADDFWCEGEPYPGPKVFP

T3: ADO-C220A, biotinylated (pQE80L-Navi-ADO) (human, UniProt Q96SZ5 1-270, C220A, biotin on the Avi tag)
T3 construct: Tag as in Dm1; source: E. coli Rosetta2(DE3), purified (Ni-NTA, SEC); not shown: Avi tag, N-terminal, kept; His6, N-terminal, kept
T3 sequence (looked up): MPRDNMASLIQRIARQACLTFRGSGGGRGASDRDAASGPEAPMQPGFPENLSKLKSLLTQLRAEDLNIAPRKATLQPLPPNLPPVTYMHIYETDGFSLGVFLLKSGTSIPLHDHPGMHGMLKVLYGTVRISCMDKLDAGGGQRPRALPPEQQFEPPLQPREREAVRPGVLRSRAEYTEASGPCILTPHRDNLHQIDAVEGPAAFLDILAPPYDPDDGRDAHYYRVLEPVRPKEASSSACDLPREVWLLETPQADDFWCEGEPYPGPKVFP

T4: ADO-I109A, biotinylated (pQE80L-Navi-ADO) (human, UniProt Q96SZ5 1-270, I109A, biotin on the Avi tag)
T4 construct: Tag as in Dm1; source: E. coli Rosetta2(DE3), purified (Ni-NTA, SEC); not shown: Avi tag, N-terminal, kept; His6, N-terminal, kept
T4 sequence (looked up): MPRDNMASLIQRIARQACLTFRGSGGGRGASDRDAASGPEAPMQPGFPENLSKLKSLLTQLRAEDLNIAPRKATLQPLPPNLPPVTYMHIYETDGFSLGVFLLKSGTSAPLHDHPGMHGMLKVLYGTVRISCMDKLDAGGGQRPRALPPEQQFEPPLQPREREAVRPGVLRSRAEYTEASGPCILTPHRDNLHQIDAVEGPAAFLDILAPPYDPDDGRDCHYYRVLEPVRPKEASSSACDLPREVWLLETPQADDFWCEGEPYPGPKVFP

T5: ADO-Y212A, biotinylated (pQE80L-Navi-ADO) (human, UniProt Q96SZ5 1-270, Y212A, biotin on the Avi tag)
T5 construct: Tag as in Dm1; source: E. coli Rosetta2(DE3), purified (Ni-NTA, SEC); not shown: Avi tag, N-terminal, kept; His6, N-terminal, kept
T5 sequence (looked up): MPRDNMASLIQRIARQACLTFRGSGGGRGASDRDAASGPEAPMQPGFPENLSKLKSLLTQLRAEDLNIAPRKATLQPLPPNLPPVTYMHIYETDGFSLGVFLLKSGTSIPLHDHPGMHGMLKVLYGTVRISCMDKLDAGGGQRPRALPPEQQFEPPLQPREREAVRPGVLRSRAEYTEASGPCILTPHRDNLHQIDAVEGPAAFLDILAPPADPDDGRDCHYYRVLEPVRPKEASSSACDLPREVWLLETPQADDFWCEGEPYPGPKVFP


Assays:
Conditions in all cases: both partners purified
[1] = biological target: T1, ADO-F256A, biotinylated …; experiment: SPR; single-cycle kinetics (SCK), 1:1 binding model; biotinylated ADO or variant immobilised on a Biotin CAP chip, peptide injected at 25.6, 64, 160, 400, 1000 nM; 4 °C; 20 mM HEPES pH 7.5, 500 mM NaCl, 10 mM DTT, 0.1% (v/v) tween-20; 50 μL/minute
[2] = biological target: T2, ADO-D206E, biotinylated …; experiment: as above
[3] = biological target: T3, ADO-C220A, biotinylated …; experiment: SPR; multi-cycle, equilibrium steady state affinity 1:1 binding model; biotinylated ADO or variant immobilised on a Biotin CAP chip (~2500-3000 RU), peptide injected; 4 °C; 20 mM HEPES pH 7.5, 500 mM NaCl, 10 mM DTT, 0.1% (v/v) tween-20; 50 μL/minute
Procedure, shortened: (§1)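 Biotinylated full-length human ADO (wild type or engineered forms) was made in E. coli with a His tag, then purified by nickel affinity and gel filtration. It was captured on a Biotin CAP chip at about 2500–3000 RU in a Biacore T200, and peptides were flowed over it. The run was at 4 °C in HEPES pH 7.5 buffer with 500 mM NaCl, DTT and tween-20, at 50 μL/minute. Kd came from a 1:1 steady-state fit of multi-cycle equilibrium responses.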

[4] = biological target: T4, ADO-I109A, biotinylated …; experiment: as above
Procedure, shortened: as §1

[5] = biological target: T5, ADO-Y212A, biotinylated …; experiment: as above
Procedure, shortened: as §1

[6] = biological target: T2, ADO-D206E, biotinylated …; experiment: as above
Procedure, shortened: as §1

Kd [1] | Kd [2] | Kd [3] | Kd [4] | Kd [5] | Kd [6] | Binder
730 nM | 1100 nM | 1100 nM | 1300 nM | 72000 nM |  | CKGLAALPHSCLER (peptide, UniProt O15539 2-15, looked up, Regulator of G-protein signalling 5 (RGS5), residues 2 to 15, N-terminal Cys; also called RGS5 peptide; source: synthetic peptide)
 |  | 1300 nM | 16000 nM | 29000 nM | 1300 nM | CFPKVLSDDMKKLK (peptide, UniProt P24001 2-15, looked up, Interleukin 32 (IL32), residues 2-15, N-terminal Cys; also called IL32 peptide; source: synthetic peptide)
